# Measured values taken from article PMC9768791 (2022).
# T1: TENM4p.E1133D peptide on HLA-C*05:01 (human)
# T1 peptide: LSDAFVSV
# T2: SVILp.E1748D peptide on HLA-A*02:01 (human)
# T2 peptide: RQFDITSVSV
# T3: VPS13Bp.G2602E peptide on HLA-A*02:01 (human)
# T3 peptide: FVNLEQHVV
# T4: PPP5Cp.E428K peptide on HLA-A*24:02 (human)
# T4 peptide: DYIIRSHKV
# T5: CLSTN1p.L289M peptide on HLA-B*35:01 (human)
# T5 peptide: FPNIHMETC
# T6: PDS5Bp.L203V peptide on HLA-A*02:01 (human)
# T6 peptide: LLDTVLVNV
# T7: CEBPZp.S100F peptide on HLA-A*24:02 (human)
# T7 peptide: KYTKAFLV
# T8: GPSM2p.D77A peptide on HLA-C*03:03 (human)
# T8 peptide: YLHAYAKAL
# Experiments:
# Assay in all cases: activation reporter or marker
# [1] = target: T1, TENM4p.E1133D peptide on HLA-C*05:01
# [2] = target: T2, SVILp.E1748D peptide on HLA-A*02:01
# [3] = target: T3, VPS13Bp.G2602E peptide on HLA-A*02:01
# [4] = target: T4, PPP5Cp.E428K peptide on HLA-A*24:02
# [5] = target: T5, CLSTN1p.L289M peptide on HLA-B*35:01
# [6] = target: T6, PDS5Bp.L203V peptide on HLA-A*02:01
# [7] = target: T7, CEBPZp.S100F peptide on HLA-A*24:02
# [8] = target: T8, GPSM2p.D77A peptide on HLA-C*03:03
binder,measurement,setting,value
"TCR707 (TCR, V domains shown) Valpha: QKEVEQNSGPLSVPEGAIASLNCTYSDRGSQSFFWYRQYSGKSPELIMSIYSNGDKEDGRFTAQLNKASQYVSLLIRDSQPSDSATYLCAVNVFNKFYFGSGTKLNVKP Vbeta: DAGVIQSPRHEVTEMGQEVTLRCKPISGHDYLFWYRQTMMRGLELLIYFNNNVPIDDSGMPEDRFSAKMPNASFSTLKIQPSEPRDSAVYFCASSFLITDTQYFGPGTRLTVL",binding result,[1],recognises
"TCR441 (TCR, V domains shown) Valpha: ILNVEQSPQSLHVQEGDSTNFTCSFPSSNFYALHWYRWETAKSPEALFVMTLNGDEKKKGRISATLNTKEGYSYLYIKGSQPEDSATYLCAPSKYNNNDMRFGAGTRLTVKP Vbeta: DAGITQSPRHKVTETGTPVTLRCHQTENHRYMYWYRQDPGHGLRLIHYSYGVKDTDKGEVSDGYSVSRSKTEDFLLTLESATSSQTSVYFCAISGTEDGELFFGEGSRLTVL",binding result,[2],recognises
"TCR535 (TCR, V domains shown) Valpha: AQKVTQAQTEISVVEKEDVTLDCVYETRDTTYYLFWYKQPPSGELVFLIRRNSFDEQNEISGRYSWNFQKSTSSFNFTITASQVVDSAVYFCALSTSMDSNYQLIWGAGTKLIIKP Vbeta: EPEVTQTPSHQVTQMGQEVILRCVPISNHLYFYWYRQILGQKVEFLVSFYNNEISEKSEIFDDQFSVERPDGSNFTLKIRSTKLEDSAMYFCASSCWDRSTDTQYFGPGTRLTVL",binding result,[3],recognises
"TCR536 (TCR, V domains shown) Valpha: AQSVAQPEDQVNVAEGNPLTVKCTYSVSGNPYLFWYVQYPNRGLQFLLKYITGDNLVKGSYGFEAEFNKSQTSFHLKKPSALVSDSALYFCAVSPLTSGTYKYIFGTGTRLKVLA Vbeta: SQTIHQWPATLVQPVGSPLSLECTVEGTSNPNLYWYRQAAGRGLQLLFYSVGIGQISSEVPQNLSASRPQDRQFILSSKKLLLSDSGFYLCAWSEGDETQYFGPGTRLLVL",binding result,[4],recognises
"TCR691 (TCR, V domains shown) Valpha: GQSLEQPSEVTAVEGAIVQINCTYQTSGFYGLSWYQQHDGGAPTFLSYNALDGLEETGRFSSFLSRSDSYGYLLLQELQMKDSASYFCAVQAGTALIFGKGTTLSVSS Vbeta: DTEVTQTPKHLVMGMTNKKSLKCEQHMGHRAMYWYKQKAKKPPELMFVYSYEKLSINESVPSRFSPECPNSSLLNLHLHALQPEDSALYLCASSQPGGGNTEAFFGQGTRLTVV",binding result,[5],recognises
"TCR447 (TCR, V domains shown) Valpha: EDQVTQSPEALRLQEGESSSLNCSYTVSGLRGLFWYRQDPGKGPEFLFTLYSAGEEKEKERLKATLTKKESFLHITAPKPEDSATYLCAVHHLNRDDKIIFGKGTRLHILP Vbeta: DSGVTQTPKHLITATGQRVTLRCSPRSGDLSVYWYQQSLDQGLQFLIQYYNGEERAKGNILERFSAQQFPDLHSELNLSSLELGDSALYFCASSADLGTREQYFGPGTRLTVT",binding result,[6],recognises
"TCR445 (TCR, V domains shown) Valpha: AQTVTQSQPEMSVQEAETVTLSCTYDTSESDYYLFWYKQPPSRQMILVIRQEAYKQQNATENRFSVNFQKAAKSFSLKISDSQLGDAAMYFCASSRWGGSEKLVFGKGTKLTVNP Vbeta: DSGVTQTPKHLITATGQRVTLRCSPRSGDLSVYWYQQSLDQGLQFLIQYYNGEERAKGNILERFSAQQFPDLHSELNLSSLELGDSALYFCASSDSRTGGTDTQYFGPGTRLTVL",binding result,[7],recognises
"TCR538 (TCR, V domains shown) Valpha: ILNVEQSPQSLHVQEGDSTNFTCSFPSSNFYALHWYRWETAKSPEALFVMTLNGDEKKKGRISATLNTKEGYSYLYIKGSQPEDSATYLCAFDNYGQNFVFGPGTRLSVLP Vbeta: DVKVTQSSRYLVKRTGEKVFLECVQDMDHENMFWYRQDPGLGLRLIYFSYDVKMKEKGDIPEGYSVSREKKERFSLILESASTNQTSMYLCASSLTGSFNEQFFGPGTRLTVL",binding result,[8],recognises
